Reference: patent US20250018037A1 (SEOUL NATIONAL UNIVERSITY R AND DB FOUNDATION, published 2025)
No end group written: not given here.

What was measured:
[1] = target: T1, Biotin conjugated 6×His peptide (also: biotin conjugated, site not given here); assay: SPR, Biacore 8K; reference is the parental murine anti-His antibody
T1 construct: also called histidine hexamer peptide
T1 peptide: HHHHHH
Source text: (§1) Since the murine anti-His antibody had decreased binding affinity against 6×His peptide after humanization, affinity maturation was further performed to increase it and chicken anti-CD40 antibody (2B1) was only humanized. Serial dilution antibodies at 6 concentrations were used to characterize the kinetics of antibody-antigen binding by SPR. […] So, there was not affinity loss against their antigen after humanization (FIG. 22B).
(§2) A Biacore 8K SPR system (Cytiva) equipped with CM5 sensor chip (Cytiva) was used to generate binding kinetic rate and affinity constants. To prepare the capture surfaces for anti-His antibodies, streptavidin was immobilized, followed by biotin conjugated 6×His peptide was captured. The antibodies were 2-fold serial diluted with 1×PBS, then injected at a flow rate of 30 μL/min for 3 minutes, allowing 10 minutes dissociation phase. The surface was regenerated using 10 mM glycine, pH 1.5. The kinetics were analyzed using Biacore 8K evaluation software, version 1.0 (Cytiva). In case of anti-CD40 antibodies, anti-human Fc IgG (Jackson ImmunoResearch) was immobilized, and then CD40-hFc protein (Acro Biosystems, #CD0-H5253) was captured. The antibodies were 2-fold serial diluted with HBS-EP+ buffer (10 mm HEPES, 150 mm sodium chloride, 3 mm EDTA, 0.05% Polysorbate 20), then injected at a flow rate of 30 μL/min for 4 minutes, allowing >15 minutes dissociation phase.

[2] = target: T1, Biotin conjugated 6×His peptide; assay: SPR (Biacore 8K): biotin 6×His peptide captured on immobilized streptavidin, scFv injected in 2-fold dilutions (6 curves)
Source text: as §1, §2

[3] = target: T1, Biotin conjugated 6×His peptide; assay: SPR, Biacore 8K, CM5 chip; biotin 6×His peptide captured on streptavidin, scFv injected in 2-fold dilutions
Source text: as §1, §2

B1: Humanized and affinity maturated anti-His scFv (hu3D5M) (scFv)
scFv: DIVMTQSPLSLPVTPGEPASISCRSSQSIVHSNRNTYLEWYLQKPGQSPQLLIYKVSNRFSGVPDRFSGSGSGTDFTLKISRVEAEDVGVYYCFQGSHVPFTFGQGTKLEIKRGGGGSGGGGSGGGGSGGGGSQVQLVQSGAEVKKPGASVKVSCKASGYTFTDYYMNWVRQAPGQGLEWMGDINPNHGGTYYNHKFKGRVTMTVDTSTSTAYMELRSLRSDDTAVYYCESQSGAYWGQGTTVTVSS
notes: also called humanized anti-His
In the case of B1, the “fold higher affinity than parental antibody” value [1] is reported as 5.8 fold, the koff [2] is reported as 0.00094 s⁻¹ and the kon [2] is reported as 437000 M⁻¹ s⁻¹. For the same binder, the Kd [3] was 2.15 nM.
